Paper PMC8782417, “A PDK-1 allosteric agonist neutralizes insulin signaling derangements and beta-amyloid toxicity in neuronal cells and in vitro” (PLoS ONE, 2022)

Biological target: T1, FAM-labeled Aβ42 peptide (carboxy-fluorescein conjugated to the N' terminus), prepared as ADDL oligomers (UniProt P05067 672-713, carboxy-fluorescein (FAM) on the N-terminus; the labelled peptide was mixed with wild type Aβ42 in a 1:2 molar ratio)
T1 construct: Aβ42, the 42-residue β-amyloid peptide cut from the amyloid precursor protein (APP); Mixed with unlabelled wild type Aβ42 (1:2 molar ratio), then incubated at 4 °C for 24 hrs to oligomerise (ADDLs); also called FAM-Aβ42; FAM tagged-Aβ; source: bought: Anaspec (FAM-Aβ42); Aβ peptides from BioSource
Assay: fluorescence polarisation; in solution; FAM-Aβ42 probe (ADDL oligomers) fixed at 200 nM, recombinant PDK-1 or Akt-1 titrated 0-10 μM (Akt 0 to 12.5 μM) until saturation; 30 min, 25°C; 100 mM NaCl, 20 mM phosphate pH7.4, 2 mM DTT, 0.1% BSA, 2% DMSO; 2 experiments each
Conditions: both partners purified

T1 sequence (P05067 672-713): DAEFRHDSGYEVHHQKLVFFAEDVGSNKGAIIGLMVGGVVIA

B1: Recombinant human PDK-1 (active) (enzyme, UniProt O15530 1-556, looked up)
chain: MARTTSQLYDAVPIQSSVVLCSCPSPSMVRTQTESSTPPGIPGGSRQGPAMDGTAAEPRPGAGSLQHAQPPPQPRKKRPEDFKFGKILGEGSFSTVVLARELATSREYAIKILEKRHIIKENKVPYVTRERDVMSRLDHPFFVKLYFTFQDDEKLYFGLSYAKNGELLKYIRKIGSFDETCTRFYTAEIVSALEYLHGKGIIHRDLKPENILLNEDMHIQITDFGTAKVLSPESKQARANSFVGTAQYVSPELLTEKSACKSSDLWALGCIIYQLVAGLPPFRAGNEYLIFQKIIKLEYDFPEKFFPKARDLVEKLLVLDATKRLGCEEMEGYGPLKAHPFFESVTWENLHQQTPPKLTAYLPAMSEDDEDCYGNYDNLLSQFGCMQVSSSSSSHSLSASDTGLPQRSGSNIEQYIHDLDSNSFELDLQFSEDEKRLLLEKQAGGNPWHQFVENNLILKMGPVDKRKGLFARRRQLLLTEGPHLYYVDPVNKVLKGEIPWSQELRPEAKNFKTFFVHTPNRTYYLMDPSGNAHKWCRKIQEVWRQRYQSHPDAAVQ
notes: phosphoinositide-dependent protein kinase-1 (PDK-1), human, recombinant, active; printed size 59 kDa; Commercial protein; also called phosphoinositide-dependent protein kinase-1; source: bought: Amsbio
B1 was tested, and the IC50 was roughly 1000 nM.
